Data published in patent US20160115241A1 (Amgen, published 2016).
Each block holds one binder with its values, some of them ahead of it.

Assays:
[1] = biological target: T1, human CD3 epsilon chain (CD3ε) (human, UniProt P07766 22-207); assay: FACS on isolated human T cells; FITC anti-human light chain secondary
T1 construct: also called CD3ε on human T cells; human CD3ε
Method: (§1) The heterodimeric bispecific antibodies described in Example 1 were produced in HEK 293 cells and were assayed by fluorescence activated cell sorting (FACS) for binding to T cells, which express CD3ε, and to a human ovarian cancer cell line, Ovcar-8, which expresses mesothelin. Briefly, the heterodimeric bispecific antibodies were incubated with about 50,000 Ovcar-8 cells or isolated human or cynomolgus monkey T cells at 4° C. for one hour. The cells were then washed and stained with a fluorescein isothiocyanate (FITC)-conjugated anti-human light chain secondary antibody and analyzed by flow cytometry. The relative binding was represented by the geometric mean of fluorescence intensity.

[2] = biological target: T2, cynomolgus monkey CD3 epsilon chain (CD3ε) (cynomolgus monkey (Macaca fascicularis), UniProt Q95LI5 22-198); assay: cell-based or functional assay
T2 chain: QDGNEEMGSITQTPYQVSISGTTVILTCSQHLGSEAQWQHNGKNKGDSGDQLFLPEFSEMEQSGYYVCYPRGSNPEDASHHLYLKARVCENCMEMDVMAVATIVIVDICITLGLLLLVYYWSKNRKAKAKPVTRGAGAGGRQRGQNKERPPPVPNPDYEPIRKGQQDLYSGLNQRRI

[3] = biological target: T2, cynomolgus monkey CD3 epsilon chain …; assay: FACS on isolated cynomolgus monkey T cells; FITC anti-human light chain secondary
Method: as §1

T1 sequence (P07766 22-207 limits assumed): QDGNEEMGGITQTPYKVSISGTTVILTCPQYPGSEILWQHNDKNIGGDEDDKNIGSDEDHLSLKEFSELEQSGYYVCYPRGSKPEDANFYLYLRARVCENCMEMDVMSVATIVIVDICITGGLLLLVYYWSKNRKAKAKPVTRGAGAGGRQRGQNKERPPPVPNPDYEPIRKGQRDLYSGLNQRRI

B1: P57216.9 (anti-MSLN/CD3ε heterodimeric bispecific antibody) (bispecific antibody)
chain 1: QVQLQESGPGLVKPSQTLSLTCTVSGGSINNNNYYWTWIRQHPGKGLEWIGYIYYSGSTFYNPSLKSRVTISVDTSKTQFSLKLSSVTAADTAVYYCAREDTMTGLDVWGQGTLVTVSSASTKGPEVQLVESGGGLVKPGVSLRLSCAASGFTFSRYSMNWVRQAPGKGLEWVSSISSSGTYIKYADSVKGRFTISRDNAKNSLNLQMNSLRAEDTAVYYCARDRDRYPLDYWGQGTLVTVSSASTKGPSVFPLAPCSRSTSESTAALGCLVKDYFPEPVTVSWNSGALTSGVHTFPAVLQSSGLYSLSSVVTVPSSNFGTQTYTCNVDHKPSNTKVDKTVGGGGSAAAVPRDLEVVAATPTSLLISWDAPHHGVAYYRITYGETGGNSPVQEFTVPGSKSTATISGLKPGVDYTINVYAVLAYPRGYPLSKPISINYRTDYKDDDDKGSSHHHHHH
chain 2: DIQMTQSPSSLSASVGDRVTITCRASQSINNYLNWYQQKPGKAPTLLIYAASSLQSGVPSRFSGSRSGTDFTLTISSLQPEDFAAYFCQQTYSNPTFGQGTKVEVKRTVAAPSSYELTQPPSVSVSPGQTARITCSGDALPKKYAYWYQQKSGQAPVLVIYEATKRPSGIPERFSGSSSGTMATLTLSGAQVEDEADYYCYSTDSTNYHWVFGGGTKLTVLGQPKAAPSVTLFPPSSEELQANKATLVCLISDFYPGAVTVAWKADSSPVKAGVETTTPSKQSNNKYAASSYLSLTPEQWKSHRSYSCQVTHEGSTVEKTVAPTECS
FACS binding (geometric mean) [1]: 103 geometric mean of fluorescence intensity

B4: P69058.3 (anti-MSLN/CD3ε heterodimeric bispecific antibody) (bispecific antibody)
chain 1: QVQLQESGPGLVKPSQTLSLTCTVSGGSINNNNYYWTWIRQHPGKGLEWIGYIYYSGSTFYNPSLKSRVTISVDTSKTQFSLKLSSVTAADTAVYYCAREDTMTGLDVWGQGTLVTVSSGGGGSGGGGSSSYELTQPPSVSVSPGQTARITCSGDALPKKYAYWYQQKSGQAPVLVIYEATKRPSGIPERFSGSSSGTMATLTLSGAQVEDEADYYCYSTDSTNYHWVFGGGTKLTVLGASTKGPSVFPLAPCSRSTSESTAALGCLVKDYFPEPVTVSWNSGALTSGVHTFPAVLQSSGLYSLSSVVTVPSSNFGTQTYTCNVDHKPSNTKVDKTVGGGGSAAAVPRDLEVVAATPTSLLISWDAPHHGVAYYRITYGETGGNSPVQEFTVPGSKSTATISGLKPGVDYTINVYAVLAYPRGYPLSKPISINYRTDYKDDDDKGSSHHHHHH
chain 2: EVQLVESGGGLVKPGVSLRLSCAASGFTFSRYGMNWVRQAPGKGLEWVSSISSSGTYIKYADSVKGRFTISRDNAKNSLNLQMNSLRAEDTAVYYCARDRDRYPLDYWGQGTLVTVSSGGGGSGGGGSDIQMTQSPSSLSASVGDRVTITCRASQSINNYLNWYQQKPGKAPTLLIYAASSLQSGVPSRFSGSRSGTDFTLTISSLQPEDFAAYFCQQTYSNPTFGQGTKVEVKRTVAAPSVFIFPPSDEQLKSGTASVVCLLNNFYPREAKVQWKVDNALQSGNSQESVTEQDSKDSTYSLSSTLTLSKADYEKHKVYACEVTHQGLSSPVTKSFNRGEC
notes: VH(CD3ε)-linker-VL(MSLN)-CL
FACS binding (geometric mean) [1]: 290 geometric mean of fluorescence intensity

B5: P69059.3 (anti-MSLN/CD3ε heterodimeric bispecific antibody) (bispecific antibody)
chain 1: SYELTQPPSVSVSPGQTARITCSGDALPKKYAYWYQQKSGQAPVLVIYEATKRPSGIPERFSGSSSGTMATLTLSGAQVEDEADYYCYSTDSTNYHWVFGGGTKLTVLGGGGGSGGGGSQVQLQESGPGLVKPSQTLSLTCTVSGGSINNNNYYWTWIRQHPGKGLEWIGYIYYSGSTFYNPSLKSRVTISVDTSKTQFSLKLSSVTAADTAVYYCAREDTMTGLDVWGQGTTVTVSSASTKGPSVFPLAPCSRSTSESTAALGCLVKDYFPEPVTVSWNSGALTSGVHTFPAVLQSSGLYSLSSVVTVPSSNFGTQTYTCNVDHKPSNTKVDKTVGGGGSAAAVPRDLEVVAATPTSLLISWDAPHHGVAYYRITYGETGGNSPVQEFTVPGSKSTATISGLKPGVDYTINVYAVLAYPRGYPLSKPISINYRTDYKDDDDKGSSHHHHHH
chain 2: DIQMTQSPSSLSASVGDRVTITCRASQSINNYLNWYQQKPGKAPTLLIYAASSLQSGVPSRFSGSRSGTDFTLTISSLQPEDFAAYFCQQTYSNPTFGQGTKVEVKGGGGSGGGGSEVQLVESGGGLVKPGVSLRLSCAASGFTFSRYSMNWVRQAPGKGLEWVSSISSSGTYIKYADSVKGRFTISRDNAKNSLNLQMNSLRAEDTAVYYCARDRDRYPLDYWGQGTLVTVSSRTVAAPSVFIFPPSDEQLKSGTASVVCLLNNFYPREAKVQWKVDNALQSGNSQESVTEQDSKDSTYSLSSTLTLSKADYEKHKVYACEVTHQGLSSPVTKSFNRGEC
notes: VL(MSLN)-linker-VH(CD3ε)-CL
FACS binding (geometric mean) [1]: 179 geometric mean of fluorescence intensity

Second part, led by results:

FACS binding (geometric mean) [1]: 354 geometric mean of fluorescence intensity
B2: H71362.2 (anti-MSLN/CD3ε heterodimeric bispecific antibody) (bispecific antibody)
chain 1: EVQLVESGGGLVKPGVSLRLSCAASGFTFSRYGMNWVRQAPGKGLEWVSSISSSGTYIKYADSVKGRFTISRDNAKNSLNLQMNSLRAEDTAVYYCARDRDRYPLDYWGQGTLVTVSSASTKGPQVQLQESGPGLVKPSETLSLTCTVSGGSIISHYWSWIRQPPGKGLEWIGYIYYSGSTNYNPSLKSRVTISVDTSKNQFSLKLTSVTAADTAVYYCARDGWSAFDYWGQGTLVTVSSASTKGPSVFPLAPCSRSTSESTAALGCLVKDYFPEPVTVSWNSGALTSGVHTFPAVLQSSGLYSLSSVVTVPSSNFGTQTYTCNVDHKPSNTKVDKTVGGGGSAAAVPRDLEVVAATPTSLLISWDAIGLYPYYYRITYGETGGNSPVQEFTVPGSKSTATISGLKPGVDYTITVYAVSGIFGWNNSKPISINYRTGSSDYKDDDDKGSSHHHHHH
chain 2: SYELTQPPSVSVSPGQTARITCSGDALPKKYAYWYQQKSGQAPVLVIYEATKRPSGIPERFSGSSSGTMATLTLSGAQVEDEADYYCYSTDSTNYHWVFGGGTKLTVLGTVAAPDIQMTQSPSSLSASVGDRVTITCRASQGIRNALGWYQQKPGKAPKRLIYAASSLQSGVPSRFSGSGSGTEFTLTISSLQPEDFATYYCLQHNSYPRTFGQGTKVEIRRTVAAPSVFIFPPSDEQLKSGTASVVCLLNNFYPREAKVQWKVDNALQSGNSQESVTEQDSKDSTYSLSSTLTLSKADYEKHKVYACEVTHQGLSSPVTKSFNRGEC

Cyno TDCC EC50 (pM), Ovcar-8 target cells with cynomolgus monkey T cells [2]: 3 pM
FACS binding (geometric mean) [1]: 9 geometric mean of fluorescence intensity
FACS binding (geometric mean) [3]: 127 geometric mean of fluorescence intensity
B3: H69070.4 (anti-MSLN/CD3ε heterodimeric bispecific antibody) (bispecific antibody)
chain 1: QVQLVESGGGVVQPGRSLRLSCAASGFTFSSYGMHWVRQAPGKGLEWVAVISYPGNTKYYADSVKGRFTISRDNSKNTLYLQMNSLRAEDTAVYFCARDQKEWRLIFDYWGQGTLVTVSSASTKGPQVQLQESGPGLVKPSETLSLTCTVSGGSIISHYWSWIRQPPGKGLEWIGYIYYSGSTNYNPSLKSRVTISVDTSKNQFSLKLTSVTAADTAVYYCARDGWSAFDYWGQGTLVTVSSASTKGPSVFPLAPCSRSTSESTAALGCLVKDYFPEPVTVSWNSGALTSGVHTFPAVLQSSGLYSLSSVVTVPSSNFGTQTYTCNVDHKPSNTKVDKTVGGGGSAAAVPRDLEVVAATPTSLLISWDAPHHGVAYYRITYGETGGNSPVQEFTVPGSKSTATISGLKPGVDYTINVYAVLAYPRGYPLSKPISINYRTDYKDDDDKGSSHHHHHH
chain 2: DIQMTQSPSSVSASVGDRVTITCRASQGISSWLAWYQQKPGKAPKLLIYAASSLQSGVPSRFSGSGSGAAFTLTISSLQPEDFATYFCQQANSFPLTFAGGTKVDIKRTVAAPDIQMTQSPSSLSASVGDRVTITCRASQGIRNALGWYQQKPGKAPKRLIYAASSLQSGVPSRFSGSGSGTEFTLTISSLQPEDFATYYCLQHNSYPRTFGQGTKVEIRRTVAAPSVFIFPPSDEQLKSGTASVVCLLNNFYPREAKVQWKVDNALQSGNSQESVTEQDSKDSTYSLSSTLTLSKADYEKHKVYACEVTHQGLSSPVTKSFNRGEC
Cyno TDCC Max killing (%), Ovcar-8 target cells with cynomolgus monkey T cells [2]: 88%
